The subject of one data set is clone P12 (P12) tumors. The experiment in a line: Growth of implanted tumors in mice. It counts as in vivo. The following applies: P12 tumors overexpressing hIGF-1 and hIGF-1R. An excerpt:
(§1) MEDI 573 selectively binds to human insulin-like growth factor (hIGF)-I and hIGF-2 and […]. MEDI-573 targets the IGF-1 and IGF-2 ligands and thereby inhibits IGF-mediated signal transduction. […] Furthermore, MEDI-573 has potential to achieve this without perturbing glucose homeostasis, which has been an adverse effect observed with investigational agents that target IGF 1R. The results of in vitro studies have shown that MEDI-573 inhibited both IGF-1 and IGF-2-stimulated phosphorylation of IGF 1R and that of downstream signaling proteins including Akt and MAPK in a number of engineered mouse embryonic fibroblast NIH-3T3 cell lines transfected to express human IGF-1R and either human IGF-1/-2. Furthermore, MEDI-573 inhibited autocrine phosphorylation of these signaling molecules.

Another data set concerns clone 32 (C32) tumors. Nature of the data set: Growth of implanted tumors in mice. Format: in vivo. The following applies: C32 tumors overexpressing hIGF II and hIGF-1R.
Source text: as §1

The test system of a further data set is IGF 1R phosphorylation. Nature of the data set: IGF-stimulated phosphorylation in engineered NIH-3T3 cell lines. Format: cell-based. The following applies: NIH-3T3 cell lines expressing human IGF-1R and human IGF-1/-2.
Source text: as §1

Data set [1] concerns RD-ES cells. The experiment in a line: In vitro cell proliferation (CellTiter-Glo), no exogenous IGF. Format: cell-based. As to conditions: 3 days. The method, then: (§2) To determine the effect of treatment with MEDI-573 antibody on the growth of tumor cells, three rhabdomyosarcoma cell lines (RD, SJCRH30, and Hs729); three Ewing's sarcoma cell lines (RD-ES, TC-71, and SK-ES-1), and four osteosarcoma cell lines (SJSA-1, KHOS, MG-63, and SAOS2) were treated with MEDI-573, an anti-IGF antibody, in the absence of exogenous IGF-1 or IGF-2.
(§3) Sarcoma cell lines were cultured overnight in regular growth medium. The following day, medium containing 0.1% charcoal stripped fetal bovine serum (FBS) was added and the cells incubated overnight. The next day, cells were treated with various amounts of MEDI-573 and the cultures incubated for 3 days. Proliferation was quantified using the CellTiter-Glo (CTG) reagent (Promega, Madison, Wis.).
For orientation: Cellular ATP, detected with luciferase, serves as a proxy for viable cell number.

For the next data set, the system named is SK-ES-1 cells. The description is as above. Format: cell-based. The following applies: 3 days. The protocol: as §2, §3
Another data set concerns TC-71 cells. The data set is described as above. Format: cell-based. As to conditions: 3 days. The protocol: as §2, §3
A further data set deals with MG-63 cells. The data set is described as above. Format: cell-based. The following applies: 3 days. The protocol: as §2, §3
In the next data set the test system is Hs729 cells. The description is as above. Format: cell-based. As to conditions: 3 days. The method, then:
as §2, §3

For data set [2], the system named is KHOS cells. Described as above. Format: cell-based. The following applies: 3 days. The protocol:
as §2, §3

A further data set concerns SAOS2 cells. Described as above. Format: cell-based. As to conditions: 3 days. The method, then: as §2, §3
The next data set concerns SJCRH30 cells. Described as above. Format: cell-based. The following applies: 3 days. The protocol:
as §2, §3

Another data set deals with p4EBP1. Nature of the data set: Immunoblot of cell lysates after MEDI-573, mTORi, combination. It counts as cell-based. As to conditions: single agent, 4 hours. The method, then:
(§4) To examine the effect of MEDI-573, mTORi, and combination of both on IGF signaling, RD-ES, SJSA-1, and KHOS cells were treated with these agents for 4 hours. After separation of the cell lysates by gel electrophoresis, the proteins were detected by immunoblotting.
(In western blotting, separated proteins are transferred to a membrane and probed.)

Data set [3] concerns pS6K. The description is as above. The following applies: RD-ES and SJSA-1 cells, 4 hours. It counts as cell-based. The protocol:
as §4

Data set [4] has as its system pS6K. Nature of the data set: In vivo mechanism of action study, immunoblot of tumors. As to conditions: RD-ES-bearing mice injected with human IGF-1/-2, MEDI-573 pretreatment. The protocol: IGF-1/-2 injection did change the baseline level of p4EBP-1.
For in vivo mechanism of action (MOA) studies, when tumors reached approximately 400 mm^3, a single dose of MEDI-573 was given. Tumor and plasma samples were collected 4 hr after dosing to assess the effect of MEDI-573 on autocrine IGF signaling. In another set of mice, 6 hr after MEDI-573 dosing, human IGF-1 or IGF-2 was injected by tail-vein. Tumor and plasma samples were collected 15 min after IGFs injection to assess the effect of MEDI-573 on IGF-1/-2 induced signaling.

Data set [5] has as its system RD-ES cells. Nature of the data set: Cytotoxicity assay, MEDI-573 and mTOR inhibitors. Format: cell-based. As to conditions: agents alone or in combination (FIG. 14).
Another data set addresses murine IGF-1 (Mus musculus, UniProt P05017). Nature of the data set: Binding affinity.
The target in a further data set is T1, IGF-1 in RD-ES tumors (Homo sapiens, UniProt P05019).
T1 construct: endogenous in cells; host or cells: RD-ES (Ewing's sarcoma) xenograft tumors in athymic nude mice
The experiment in a line: Free IGF ligands in xenograft tumors (ELISA). It counts as in vivo, mice. As to conditions: different amounts of MEDI-573. The protocol: Free IGF ligands were measured in xenograft tumors in untreated mice and in mice treated with different amounts of MEDI-573. […] Despite KHOS cells being unresponsive to IGF-1 and/or IGF-2 stimulation, IGF-2 levels were examined in a KHOS/NP model.
Sarcoma cell lines were purchased from American type Culture Collection (Manassas, Va.). CellTiter-Glo reagents were obtained from Promega (Madison, Wis.). Whole cell lysate kits for pIGF-1R, pIR-A, and pAKT were purchased from Meso Scale Discovery (MSD; Rockville, Md.). ELISA kits for total IGF-1 and IGF-1R were purchased from R&D Systems (Minneapolis, Minn.). ELISA kits for total IGF-2 were purchased from Insight Genomics (Falls Church, Va.). An ELISA kit for detecting free IGF-1 and IGF-2 was developed in house. Human IGF-1 and IGF-2 were obtained from R&D Systems (Minneapolis, Minn.). Antibodies for detecting phospho-AKT, phospho-4EBP1, phospho-S6K, and GAPDH were from Cell Signaling Technology (Beverly, Mass.).
A general note: In an ELISA, binding on a coated surface is turned into a signal by an enzyme label.

The test system of another data set is SJSA-1 cells. Nature of the data set: Activation of caspase-3 and caspase-7. It counts as cell-based. The following applies: increasing concentrations, 48 hours, compared to isotype control. The method, then: (§5) To evaluate the basis for the cytotoxic effect of MEDI-573 on RD-ES, TC-71, SJSA-1, and KHOS cells, cells were treated with increasing concentrations of MEDI-573 for 48 hours and analyzed by measuring the activation of caspase-3 and caspase-7. […] (Data not shown.)

In data set [6] the test system is KHOS cells. The experiment in a line: Activation of caspase-3 and caspase-7. Format: cell-based. As to conditions: increasing concentrations, 48 hours. The method, then:
as §5

The IC50 is the concentration needed to halve the response being measured.

T1 sequence (P05019 49-118): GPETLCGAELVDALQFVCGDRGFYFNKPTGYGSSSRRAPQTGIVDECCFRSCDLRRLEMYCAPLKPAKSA
murine IGF-1, sequence (P05017 1-118 limits assumed): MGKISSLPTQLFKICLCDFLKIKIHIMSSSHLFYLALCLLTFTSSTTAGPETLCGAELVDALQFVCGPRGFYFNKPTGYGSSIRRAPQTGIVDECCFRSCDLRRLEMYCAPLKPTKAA

B1: MEDI-573: fully human monoclonal IgG2 lambda antibody that binds IGF-2 with cross reactivity to IGF-1; hybridoma 7.159.2, ATCC PTA-7424 (antibody)
heavy: QVQLVQSGAEVKKPGASVKVSCKASGYTFTSYDINWVRQATGQGLEWMGWMNPNSGNTGYAQKFQGRVTMTRNTSISTAYMELSSLRSEDTAVYYCARDPYYYYYGMDVWGQGTTVTVSSASTKGPSVFPLAPCSRSTSESTAALGCLVKDYFPEPVTVSWNSGALTSGVHTFPAVLQSSGLYSLSSVVTVPSSNFGTQTYTCNVDHKPSNTKVDKTVERKCCVECPPCPAPPVAGPSVFLFPPKPKDTLMISRTPEVTCVVVDVSHEDPEVQFNWYVDGVEVHNAKTKPREEQFNSTFRVVSVLTVVHQDWLNGKEYKCKVSNKGLPAPIEKTISKTKGQPREPQVYTLPPSREEMTKNQVSLTCLVKGFYPSDIAVEWESNGQPENNYKTTPPMLDSDGSFFLYSKLTVDKSRWQQGNVFSCSVMHEALHNHYTQKSLSLSPGK
light: QSVLTQPPSVSAAPGQKVTISCSGSSSNIENNHVSWYQQLPGTAPKLLIYDNNKRPSGIPDRFSGSKSGTSATLGITGLQTGDEADYYCETWDTSLSAGRVFGGGTKLTVLGQPKAAPSVTLFPPSSEELQANKATLVCLISDFYPGAVTVAWKADSSPVKAGVETTTPSKQSNNKYAASSYLSLTPEQWKSHRSYSCQVTHEGSTVEKTVAPTECS
As to B1, the “growth of implanted tumors” value in the data set with clone P12 (P12) tumors and in the data set with clone 32 (C32) tumors was “significantly inhibited the growth” each time. In addition, in the data set on IGF 1R phosphorylation, the “IGF-1 and IGF-2-stimulated phosphorylation of IGF 1R” value is on record as “inhibited”. The 50% inhibitory concentration (IC50) in the data set with RD-ES cells [1] amounted to 6.9 µM; in the data set with SK-ES-1 cells, 3.2 µM; in the data set on TC-71 cells, 2.7 µM; with SJCRH30 cells, 3.2 µM. Also, the “IC50 (μM)” value in the data set with MG-63 cells, with Hs729 cells, in the data set with KHOS cells [2] and in the data set on SAOS2 cells was “Inactive” in each case. For the same molecule, in the data set with p4EBP1, the “phosphorylation of 4EBP1” value is reported as “did not have effect”. The “phosphorylation of S6K” value in the data set on pS6K [3] is “inhibited phosphorylation of S6K”. The “IGF-induced pS6K in tumors” value in the data set with pS6K [4] was “dramatic reduction”. Also, in the data set with RD-ES cells [5], the “decrease in cell viability” value is recorded as 56%. For the same molecule, the binding affinity result with murine IGF-1 is recorded as “low binding affinity”. Moreover, in the data set with IGF-1 in RD-ES tumors, the “free IGF-1 in tumors” value is reported as “dose-dependent suppression”. Further, the figures for the caspase-3/-7 activities entry in the data set on SJSA-1 cells and in the data set with KHOS cells [6] were “increased caspase-3/-7 activities in a dose-dependent manner” and “No activation of caspase-3/-7 was detected”, respectively.
